Laboratory results from FireProtDB (doi:10.1021/bi00250a032).
“And” between values parts separate entries of the source, which are not always exact repeats. Identical values can stand only once.

Conditions: Streptomyces sp. EC3, Thermal, DSC, reversible: yes
[1] = pH 7.5, Sodium phosphate 60 mM, transition: 3
[2] = pH 8.9, glycine-NaOH 60 mM, transition: 4

Sequence of Endo-1,4-beta-xylanase wild type, Q56013 (Q56013 entry or part of it): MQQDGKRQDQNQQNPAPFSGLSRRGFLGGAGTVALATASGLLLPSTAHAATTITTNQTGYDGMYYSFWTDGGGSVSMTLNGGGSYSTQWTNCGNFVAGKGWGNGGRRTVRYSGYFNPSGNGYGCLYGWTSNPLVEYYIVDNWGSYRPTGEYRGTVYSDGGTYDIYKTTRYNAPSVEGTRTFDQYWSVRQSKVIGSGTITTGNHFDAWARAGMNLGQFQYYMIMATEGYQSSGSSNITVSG

With “Endo-1,4-beta-xylanase wild type, Q56013” the “unfolding enthalpy (calorimetric)” value (pH 3.6, Sodium phosphate 60 mM, transition: 4) was 66 kcal/mol and 84 kcal/mol and 108 kcal/mol, the “unfolding enthalpy (calorimetric)” value (pH 4.1, Sodium phosphate 60 mM, transition: 3) was 57 kcal/mol and 100 kcal/mol and the “unfolding enthalpy (calorimetric)” value (pH 6.3, Sodium phosphate 60 mM, transition: 4) was 100 kcal/mol and 150 kcal/mol and 223 kcal/mol. For the same substance, the Tm [1] was 60.5 °C and 64 °C, the “unfolding enthalpy (calorimetric)” value [1] was 99 kcal/mol and 200 kcal/mol and the “unfolding enthalpy (calorimetric)” value (pH 7.5, Sodium phosphate 60 mM, transition: 4) was 93 kcal/mol and 137 kcal/mol and 187 kcal/mol. For the same substance, the “unfolding enthalpy (calorimetric)” value (pH 8.9, glycine-NaOH 60 mM, transition: 3) was 72 kcal/mol and 136 kcal/mol, the Tm [2] was 51.5 °C and 54.6 °C and the “unfolding enthalpy (calorimetric)” value [2] was 118 kcal/mol and 157 kcal/mol.
